Sequences and labels used below:
B1: HDV Ribozyme (parent)
chain: GGCCGGCAUGGUCCCAGCCUCCUCGCUGGCGCCGGCUGGGCAACAUUCCGAGGGGACCGUCCCCUCGGUAAUGGCGAAUGGGACCCA

Variants of B1 are the subject of this data set. The data set is described as follows: self-cleavage, relative activity (ratio to wild type); higher = more cleavage; co-transcriptional.
As to GGCCGGCAUGGUCCCAGCCUCCUCUCUGGCGCCGGCUGGGCAACAUUCCGAGGGGACCGUCCCCUCGGUAAUGGCCAAUGGGACCCA [G25U G76C], the self-cleavage came to 0.224.

Regarding GGCCGGCAUGGUCCCAGCCUCCUCGCUGGCGCCGGCUUGGCAGCAUUCCGAGGGGACCGUCCCCUCGGUAAUGGCGAAUGGGACCCA [G38U A43G], the self-cleavage is 0.208.

For GGCCGGCAUGGUCCCAGCCUUCUCGCUGGCGCCGGCUGGGCUACAUUCCGAGGGGACCGUCCCCUCGGUAAUGGCGAAUGGGACCCA [C21U A42U], the self-cleavage worked out at 0.0845.

For the variant GGCCGGCAUCGUCCCAGCCUCCUCGCUGGCGCCGGCUGGGCAACAUUCCGAGGGGACCGUCCCCUCGGUAAGGGCGAAUGGGACCCA [G10C U72G], the self-cleavage was found to be 0.369.

As for GGCCGGCAUGGUCCCAGCCUCCUCGCUGGCGCCGGCUGUGCAACAUUCCGAGGGGACCGUCCCCUCGGUAAUGCCGAAUGGGACCCA [G39U G74C], the self-cleavage was 0.23.

On to GGCCGGCAUGGUCCCAGCCUCCUCGCUGGCGCCGGCUGGUCAACAUUCCGAGGGGACCUUCCCCUCGGUAAUGGCGAAUGGGACCCA [G40U G59U], for which the self-cleavage turned out to be 0.732.

GGCCGGCAUGGUCCCAGCCUCCUCGCUGGCGCCGGCUGGGCAACAUUCCGAGGGGACCGUCCCCUCUGUAUUGGCGAAUGGGACCCA [G67U A71U]: the self-cleavage was found to be 0.992.

With GGCCGGCAUGGUCCCAGCCUCCUCCCCGGCGCCGGCUGGGCAACAUUCCGAGGGGACCGUCCCCUCGGUAAUGGCGAAUGGGACCCA [G25C U27C], the self-cleavage was found to be 0.128.

GGCCGGCAUGGUCCCAGCCUCCUCGGUGGCGCCGGCUGGGCAACAUUCCGAGGGGACCGUCACCUCGGUAAUGGCGAAUGGGACCCA [C26G C62A]: the self-cleavage stood at 0.985.

With GGCCGGCAUGGUCCCAGCCUCCUCGCUGGCGCCGGCUGGGCAACAUUCCGAGGGGACCGACCCCUCUGUAAUGGCGAAUGGGACCCA [U60A G67U], the self-cleavage worked out at 0.818.

With GGCCGGCAUGGUCCCAGCCUCCUCGCUGGCGCCGGCUGGGCAACAUUCCGAGAGGACCGUCCCCUCGGUCAUGGCGAAUGGGACCCA [G53A A70C], the self-cleavage amounted to 1.06.

For the variant GGCCGGCAUGGUCCCAGCCUCCUCGCUGGCGCCGGCUGGGCAACAUUCCGAGGGGACCGUCCCCUCGCUUAUGGCGAAUGGGACCCA [G68C A70U], the self-cleavage was determined as 0.778.

With GGUCGGCAUGGUCCCAGCCUCCUCGCUGGCGCCGGCUGGGCAACCUUCCGAGGGGACCGUCCCCUCGGUAAUGGCGAAUGGGACCCA [C3U A45C], the self-cleavage was 0.43.

For GGCCGGCAUGGUCCCAGCCUCCUCGCUGGCGCCGGCUGGGCAACAUUCCUAGGGGACCGUCCCCUCGGUAAUGGCGAAUGGGACCGA [G50U C86G], the self-cleavage was 0.811.

GGCCGGCAUGGUCCCAGCGUCCUCGCUGGCGCCGGCUGGGCAACAUUCCGAGGGGCCCGUCCCCUCGGUAAUGGCGAAUGGGACCCA [C19G A56C]: the self-cleavage turned out to be 0.0489.

Regarding GCCCGGCAUGGUCCCAGCCUCCUUGCUGGCGCCGGCUGGGCAACAUUCCGAGGGGACCGUCCCCUCGGUAAUGGCGAAUGGGACCCA [G2C C24U], the self-cleavage is 0.0405.

Regarding GGCCGGCAUGGUCCCAGCCUCCUCGCUGGCGCCGGCUGGACAACAUUCCGAGGGGACCGUCCCCUCGGGAAUGGCGAAUGGGACCCA [G40A U69G], the self-cleavage came out at 0.712.

Regarding GGCCGGCAUGGUCCCAGCCUCCUCGCUGGCGCCGGCUGGGCAACAUUCAGAGGGGACCGUCCCGUCGGUAAUGGCGAAUGGGACCCA [C49A C64G], the self-cleavage was 0.356.

For the variant GGCCGGCAUGGUCCCAGCCUUCUCGCUGGCGCCGGCUGGGCAACAUUCCGAGGGGACCGUCCCCUCGGUAAUGGCGAUUGGGACCCA [C21U A78U], the self-cleavage was found to be 0.148.

On to GGCCGGCAUGGUCCCAGCCUCCUCGCUGUCGCCGGCUGGGCAACAUUCCGAGGGGACAGUCCCCUCGGUAAUGGCGAAUGGGACCCA [G29U C58A], for which the self-cleavage worked out at 0.204.

Regarding GGCCGGCAAAGUCCCAGCCUCCUCGCUGGCGCCGGCUGGGCAACAUUCCGAGGGGACCGUCCCCUCGGUAAUGGCGAAUGGGACCCA [U9A G10A], the self-cleavage was 1.03.

Turning to GGCCGGCAUGGUCCCAUCCUCCUCGCUGGGGCCGGCUGGGCAACAUUCCGAGGGGACCGUCCCCUCGGUAAUGGCGAAUGGGACCCA [G17U C30G], the self-cleavage was found to be 0.486.

Take GGCCGGCAUGGUCCCAGCCUCCUCGCUGGCGCCGGCAGGGCAACAUUCCAAGGGGACCGUCCCCUCGGUAAUGGCGAAUGGGACCCA [U37A G50A]: the self-cleavage amounted to 0.0361.

As for GGCCGGCAUGGUCCCAGCCACCUCGCUGGCGCCGGCUGGGCAACAUUCCGAGUGGACCGUCCCCUCGGUAAUGGCGAAUGGGACCCA [U20A G53U], the self-cleavage came out at 0.0959.

As for GGGCGGCAUGGUCCCAGCCUCCUCGCUGGCGCCGGCUGGGCAACAUUCCGAGGGGACCGUCCCCUCGGUCAUGGCGAAUGGGACCCA [C3G A70C], the self-cleavage was found to be 0.508.

Turning to GGCCGGCAUGGUCCCAGCCUCCUCGUUGGCGCCGGCUGGGCAACAUUCCGAGGGGACCGUCCCCUCGGUAAUGGCGAAGGGGACCCA [C26U U79G], the self-cleavage is 1.03.

Take GGCCGGCAUGGUCCCAGCCUCCUCGCUGGCGCCGUCUGGGCAACAUUCCGAGGGGACCGUCCCCUCGGUAAUGGCGAAUGCGACCCA [G35U G81C]: the self-cleavage worked out at 0.133.

As to GGCCGGCAUGGUCCCAGCCUCUUCGCUGGCGCCGGCUGGGCAACAGUCCGAGGGGACCGUCCCCUCGGUAAUGGCGAAUGGGACCCA [C22U U46G], the self-cleavage is 0.192.

Consider GGCCGGCAUGGUCCCAGCCUCCUCGCUGGCGCCGGCUGGGCAACAUUCCGACGGGACCGUCCCCUCGGCAAUGGCGAAUGGGACCCA [G52C U69C], for which the self-cleavage is 0.943.

In the case of GGCCGGCAUGGUCCCAGCCUCCUCGCUGGCGCCCGCUGGGCAACAUUCCGAGGGGACCGUCCCCUCUGUAAUGGCGAAUGGGACCCA [G34C G67U], the self-cleavage was 0.166.

GGCCGGCAUGGUCCCAGGCUCCUCGCUGGCGCCGGCUGGGCAACAUUCCGAGGCGACCGUCCCCUCGGUAAUGGCGAAUGGGACCCA [C18G G54C]: the self-cleavage is 0.0475.

For the variant GGCCGGCAUGGUCCCAGCCUCCUCGCUGGCGCCGGCUGUGCAACGUUCCGAGGGGACCGUCCCCUCGGUAAUGGCGAAUGGGACCCA [G39U A45G], the self-cleavage came out at 0.743.
